This note sets out measurements from US20250025478A1 (published 2025).

Experiment [1] has as its target T1, RNF213-TurboID (Homo sapiens (Human), UniProt Q63HN8 1-5207).
T1 construct: Recombined into HeLa FlpIn-TRex RNF213-KO cells; proximity-labelling bait; also called C-Turbo; 3×-FLAG-RNF213-TurboID; not shown: 3×-FLAG tag; TurboID biotin ligase at the C-terminus
Description: TurboID proximity biotinylation, streptavidin recovery, MS, SAINT express. The source says:
Proteins were ranked as potential binding partners by using the SAINT express algorithm³⁶ Immunoblotting (FIG. 9A) and silver staining (FIG. 9B) confirmed that similar amounts of each sample were submitted for analysis. Relatively few proteins labelled by N-Turbo were labelled to an extent greater than their labeling by Control-Turbo (FIG. 9C). […] Among the other top candidates were the major K63-deubiquitinase and NF-κB regulator CYLD and its interacting protein SPATA2 (FIG. 2B, orange-colored arrows). […] Other top C-Turbo interactors included proteins involved in VEGF signaling, which is induced in hypoxia (FLII, MYOF^{39,40}), inflammation and atherosclerosis (MAP4K4, SPTLC1^{41,42}), lipotoxicity (SPTLC1, ALDH1B1^{43,44}), ischemia response (CPEB4⁴⁵), and stroke (SARS2⁴⁶). Top N-Turbo interactors included CYP51A1, which plays a crucial role in cholesterol metabolism and atherosclerosis⁴⁷.
Cells were cultured in standard media but with 10% tetracycline (Tet)-free FBS (Clonetech) for at least 1 week. Tet-free/biotin-free FBS was generated by incubating Tet-free FBS with sterile streptavidin beads overnight followed by centrifugation to remove the beads. N-Turbo, C-Turbo, and Turbo proteins were induced by adding 1 μg/ml Dox to cells for 36 hours. For the last ten min. of incubation, 500 μM of biotin was added to the medium. Labelling reactions was terminated by removing the medium and adding ice-cold PBS to plates, which were kept on ice. Lysates were collected in RIPA buffer without Na-deoxycholate, and biotin-labelled proteins were collected by incubating with high-capacity streptavidin agarose beads for 4 hours at 4° C.

Experiment [2] concerns the target T1, RNF213-TurboID. Kind of experiment: TurboID proximity biotinylation, streptavidin recovery, MS, SAINT express (FIG. 2B). The method, then:
RNF213-interacting proteins were identified to evaluate how RNF213 regulates hypoxia sensitivity (FIG. 2A). TurboID-RNF213 (“N-Turbo”), RNF213-TurboID (“C-Turbo”), or TurboID alone (Control Turbo) were recombined into HeLa FlpIn-TRex RNF213-KO cells. These cells were labelled with biotin for 10 min., and biotinylated proteins were recovered on streptavidin, digested with trypsin, and analyzed by MS (FIG. 2A). Proteins were ranked as potential binding partners by using the SAINT express algorithm³⁶ Immunoblotting (FIG. 9A) and silver staining (FIG. 9B) confirmed that similar amounts of each sample were submitted for analysis. Relatively few proteins labelled by N-Turbo were labelled to an extent greater than their labeling by Control-Turbo (FIG. 9C). […] Among the other top candidates were the major K63-deubiquitinase and NF-κB regulator CYLD and its interacting protein SPATA2 (FIG. 2B, orange-colored arrows). […] Other top C-Turbo interactors included proteins involved in VEGF signaling, which is induced in hypoxia (FLII, MYOF^{39,40}), inflammation and atherosclerosis (MAP4K4, SPTLC1^{41,42}), lipotoxicity (SPTLC1, ALDH1B1^{43,44}), ischemia response (CPEB4⁴⁵), and stroke (SARS2⁴⁶). Top N-Turbo interactors included CYP51A1, which plays a crucial role in cholesterol metabolism and atherosclerosis⁴⁷.
Cells were cultured in standard media but with 10% tetracycline (Tet)-free FBS (Clonetech) for at least 1 week. Tet-free/biotin-free FBS was generated by incubating Tet-free FBS with sterile streptavidin beads overnight followed by centrifugation to remove the beads. N-Turbo, C-Turbo, and Turbo proteins were induced by adding 1 μg/ml Dox to cells for 36 hours. For the last ten min. of incubation, 500 μM of biotin was added to the medium.

T1 sequence (Q63HN8 whole entry N1045D): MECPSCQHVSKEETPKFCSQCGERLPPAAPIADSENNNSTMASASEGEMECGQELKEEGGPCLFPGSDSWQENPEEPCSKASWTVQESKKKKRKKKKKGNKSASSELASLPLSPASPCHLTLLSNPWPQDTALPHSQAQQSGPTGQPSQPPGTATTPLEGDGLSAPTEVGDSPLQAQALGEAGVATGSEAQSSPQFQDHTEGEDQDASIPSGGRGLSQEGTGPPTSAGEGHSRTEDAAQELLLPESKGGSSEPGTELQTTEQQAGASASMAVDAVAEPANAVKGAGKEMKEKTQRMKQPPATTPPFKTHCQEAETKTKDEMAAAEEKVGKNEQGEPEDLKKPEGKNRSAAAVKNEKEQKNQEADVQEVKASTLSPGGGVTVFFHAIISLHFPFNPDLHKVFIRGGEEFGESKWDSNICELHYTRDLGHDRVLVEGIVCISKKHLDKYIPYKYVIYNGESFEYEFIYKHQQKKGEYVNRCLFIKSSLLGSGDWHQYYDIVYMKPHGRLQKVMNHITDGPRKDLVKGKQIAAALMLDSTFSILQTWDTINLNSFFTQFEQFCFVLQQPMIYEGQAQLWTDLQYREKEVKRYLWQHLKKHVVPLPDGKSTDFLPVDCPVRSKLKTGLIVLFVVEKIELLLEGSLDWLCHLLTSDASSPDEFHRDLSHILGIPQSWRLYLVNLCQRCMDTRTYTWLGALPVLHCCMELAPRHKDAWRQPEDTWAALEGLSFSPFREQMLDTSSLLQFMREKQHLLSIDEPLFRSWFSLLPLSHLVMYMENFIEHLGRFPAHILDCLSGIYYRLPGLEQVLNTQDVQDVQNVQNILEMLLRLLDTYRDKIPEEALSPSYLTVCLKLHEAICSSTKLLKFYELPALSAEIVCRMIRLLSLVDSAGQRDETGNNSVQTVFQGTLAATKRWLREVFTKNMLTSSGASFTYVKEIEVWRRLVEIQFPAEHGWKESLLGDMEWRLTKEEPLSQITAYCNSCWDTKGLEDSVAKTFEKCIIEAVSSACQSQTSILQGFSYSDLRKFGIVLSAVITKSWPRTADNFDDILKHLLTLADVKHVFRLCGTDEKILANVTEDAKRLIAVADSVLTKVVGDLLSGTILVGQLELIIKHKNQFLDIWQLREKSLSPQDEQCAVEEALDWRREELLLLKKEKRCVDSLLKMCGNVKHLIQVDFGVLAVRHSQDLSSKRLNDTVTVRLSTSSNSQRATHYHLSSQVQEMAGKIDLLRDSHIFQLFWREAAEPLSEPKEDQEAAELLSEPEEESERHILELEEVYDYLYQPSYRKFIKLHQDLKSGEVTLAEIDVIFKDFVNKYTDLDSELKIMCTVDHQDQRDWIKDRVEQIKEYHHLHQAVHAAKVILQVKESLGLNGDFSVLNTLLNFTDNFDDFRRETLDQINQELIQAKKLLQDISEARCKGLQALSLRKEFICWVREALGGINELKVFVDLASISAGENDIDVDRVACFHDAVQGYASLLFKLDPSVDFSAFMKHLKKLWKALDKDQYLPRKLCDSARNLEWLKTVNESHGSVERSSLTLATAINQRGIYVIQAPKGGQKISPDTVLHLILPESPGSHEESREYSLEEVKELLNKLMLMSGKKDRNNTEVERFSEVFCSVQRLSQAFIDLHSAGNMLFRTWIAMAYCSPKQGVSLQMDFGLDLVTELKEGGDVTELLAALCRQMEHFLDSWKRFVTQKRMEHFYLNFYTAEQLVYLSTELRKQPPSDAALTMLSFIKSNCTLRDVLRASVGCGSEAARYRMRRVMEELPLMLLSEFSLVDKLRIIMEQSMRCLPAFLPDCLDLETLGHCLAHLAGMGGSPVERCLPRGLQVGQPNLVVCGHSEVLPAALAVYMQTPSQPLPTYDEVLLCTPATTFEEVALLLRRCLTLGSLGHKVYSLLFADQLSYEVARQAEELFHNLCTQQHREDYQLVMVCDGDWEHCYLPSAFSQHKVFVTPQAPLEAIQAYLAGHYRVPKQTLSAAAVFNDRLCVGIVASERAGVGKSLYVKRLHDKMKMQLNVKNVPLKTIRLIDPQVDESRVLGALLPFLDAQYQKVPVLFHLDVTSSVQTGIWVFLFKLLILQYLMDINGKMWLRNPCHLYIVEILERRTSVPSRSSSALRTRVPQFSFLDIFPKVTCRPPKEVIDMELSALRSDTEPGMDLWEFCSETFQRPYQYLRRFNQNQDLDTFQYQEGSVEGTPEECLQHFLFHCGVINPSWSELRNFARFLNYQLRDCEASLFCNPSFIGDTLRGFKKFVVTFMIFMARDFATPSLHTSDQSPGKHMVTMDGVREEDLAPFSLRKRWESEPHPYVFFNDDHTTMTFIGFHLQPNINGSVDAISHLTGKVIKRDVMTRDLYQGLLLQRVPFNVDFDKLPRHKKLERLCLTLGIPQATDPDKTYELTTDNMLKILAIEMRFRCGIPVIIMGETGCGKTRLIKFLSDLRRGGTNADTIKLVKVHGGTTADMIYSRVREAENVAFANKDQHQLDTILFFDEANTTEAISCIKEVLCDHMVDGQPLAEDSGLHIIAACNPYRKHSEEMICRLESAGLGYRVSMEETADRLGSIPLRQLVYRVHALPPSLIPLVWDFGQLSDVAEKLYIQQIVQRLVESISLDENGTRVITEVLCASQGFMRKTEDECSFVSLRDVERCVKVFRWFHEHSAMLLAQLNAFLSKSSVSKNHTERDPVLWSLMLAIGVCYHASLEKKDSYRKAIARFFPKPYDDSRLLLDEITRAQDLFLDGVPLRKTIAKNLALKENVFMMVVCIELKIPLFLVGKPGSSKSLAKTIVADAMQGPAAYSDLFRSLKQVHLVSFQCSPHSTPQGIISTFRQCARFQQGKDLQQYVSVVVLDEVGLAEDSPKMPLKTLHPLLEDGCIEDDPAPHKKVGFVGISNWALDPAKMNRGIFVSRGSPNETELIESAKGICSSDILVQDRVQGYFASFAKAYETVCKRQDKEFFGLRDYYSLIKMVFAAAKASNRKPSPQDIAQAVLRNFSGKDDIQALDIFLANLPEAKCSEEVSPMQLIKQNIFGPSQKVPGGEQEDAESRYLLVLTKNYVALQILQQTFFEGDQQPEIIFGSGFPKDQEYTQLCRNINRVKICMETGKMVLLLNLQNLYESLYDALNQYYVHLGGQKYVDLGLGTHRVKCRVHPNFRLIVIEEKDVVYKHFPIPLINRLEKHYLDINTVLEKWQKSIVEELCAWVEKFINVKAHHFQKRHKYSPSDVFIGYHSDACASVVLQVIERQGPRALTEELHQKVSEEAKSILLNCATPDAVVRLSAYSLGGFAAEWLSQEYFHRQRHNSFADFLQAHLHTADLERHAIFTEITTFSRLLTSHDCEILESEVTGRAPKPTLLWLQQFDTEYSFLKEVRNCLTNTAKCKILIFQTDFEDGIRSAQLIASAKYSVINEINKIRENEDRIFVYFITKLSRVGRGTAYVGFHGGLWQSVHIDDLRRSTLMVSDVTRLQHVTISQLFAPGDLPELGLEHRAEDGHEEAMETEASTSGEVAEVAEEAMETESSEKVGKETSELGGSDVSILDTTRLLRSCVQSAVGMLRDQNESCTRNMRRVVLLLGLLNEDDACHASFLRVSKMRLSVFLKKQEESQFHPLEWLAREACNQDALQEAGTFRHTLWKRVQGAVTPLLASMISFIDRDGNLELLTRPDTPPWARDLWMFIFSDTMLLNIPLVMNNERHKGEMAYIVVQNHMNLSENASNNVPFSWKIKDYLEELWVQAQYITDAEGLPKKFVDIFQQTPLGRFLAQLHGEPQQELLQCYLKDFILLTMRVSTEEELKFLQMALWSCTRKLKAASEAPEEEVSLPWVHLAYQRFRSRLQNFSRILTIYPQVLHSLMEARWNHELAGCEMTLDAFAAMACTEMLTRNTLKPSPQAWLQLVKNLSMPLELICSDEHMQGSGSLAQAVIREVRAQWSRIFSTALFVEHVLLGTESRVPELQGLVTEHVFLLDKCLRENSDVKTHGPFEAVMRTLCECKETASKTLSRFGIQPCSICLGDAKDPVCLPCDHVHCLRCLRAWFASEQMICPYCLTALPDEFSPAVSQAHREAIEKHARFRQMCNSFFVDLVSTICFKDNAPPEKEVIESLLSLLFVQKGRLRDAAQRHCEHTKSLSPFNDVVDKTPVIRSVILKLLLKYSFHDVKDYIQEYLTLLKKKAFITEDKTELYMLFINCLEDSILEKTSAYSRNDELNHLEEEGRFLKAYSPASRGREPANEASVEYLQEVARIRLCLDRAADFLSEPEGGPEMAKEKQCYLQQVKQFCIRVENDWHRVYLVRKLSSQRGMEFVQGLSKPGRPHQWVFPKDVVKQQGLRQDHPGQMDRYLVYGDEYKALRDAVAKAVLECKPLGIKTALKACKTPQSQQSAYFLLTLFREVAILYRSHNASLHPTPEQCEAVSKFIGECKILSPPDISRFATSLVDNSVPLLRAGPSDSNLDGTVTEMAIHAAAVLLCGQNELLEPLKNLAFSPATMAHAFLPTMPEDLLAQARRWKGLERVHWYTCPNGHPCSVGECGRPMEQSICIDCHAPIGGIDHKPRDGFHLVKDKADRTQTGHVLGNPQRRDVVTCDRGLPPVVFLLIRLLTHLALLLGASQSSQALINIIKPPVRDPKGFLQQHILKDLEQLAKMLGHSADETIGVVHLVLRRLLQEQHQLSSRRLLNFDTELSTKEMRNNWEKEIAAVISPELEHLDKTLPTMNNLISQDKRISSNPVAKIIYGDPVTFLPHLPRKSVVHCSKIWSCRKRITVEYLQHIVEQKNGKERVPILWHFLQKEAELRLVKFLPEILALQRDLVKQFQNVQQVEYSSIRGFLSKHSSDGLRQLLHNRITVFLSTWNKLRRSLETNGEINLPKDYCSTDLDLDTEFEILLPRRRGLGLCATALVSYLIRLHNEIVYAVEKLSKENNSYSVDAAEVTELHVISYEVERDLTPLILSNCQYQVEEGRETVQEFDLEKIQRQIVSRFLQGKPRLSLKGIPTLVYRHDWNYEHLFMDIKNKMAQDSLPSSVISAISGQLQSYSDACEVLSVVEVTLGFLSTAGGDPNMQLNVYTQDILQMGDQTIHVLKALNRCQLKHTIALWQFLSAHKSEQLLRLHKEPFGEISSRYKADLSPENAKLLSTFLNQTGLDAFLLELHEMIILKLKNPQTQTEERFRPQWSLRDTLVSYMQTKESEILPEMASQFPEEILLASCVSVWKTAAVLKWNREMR

B1: SARS2 (enzyme, Homo sapiens, UniProt Q9NP81 35-518, looked up)
chain: TTEKRNRNLLYEYAREGYSALPQLDIERFCACPEEAAHALELRKGELRSADLPAIISTWQELRQLQEQIRSLEEEKAAVTEAVRALLANQDSGEVQQDPKYQGLRARGREIRKELVHLYPREAQLEEQFYLQALKLPNQTHPDVPVGDESQARVLHMVGDKPVFSFQPRGHLEIGEKLDIIRQKRLSHVSGHRSYYLRGAGALLQHGLVNFTFNKLLRRGFTPMTVPDLLRGAVFEGCGMTPNANPSQIYNIDPARFKDLNLAGTAEVGLAGYFMDHTVAFRDLPVRMVCSSTCYRAETNTGQEPRGLYRVHHFTKVEMFGVTGPGLEQSSQLLEEFLSLQMEILTELGLHFRVLDMPTQELGLPAYRKFDIEAWMPGRGRFGEVTSASNCTDFQSRRLHIMFQTEAGELQFAHTVNATACAVPRLLIALLESNQQKDGSVLVPPALQSYLGTDRITAPTHVPLQYIGPNQPRKPGLPGQPAVS
notes: Endogenous protein found by proximity labelling/MS; also called Serine -- tRNA ligase, mitochondrial
On to B1, for which the binding result with RNF213-TurboID [1] was “binds”.

B2: USP15 (enzyme, human, UniProt Q9Y4E8 2-981, looked up)
chain: AEGGAADLDTQRSDIATLLKTSLRKGDTWYLVDSRWFKQWKKYVGFDSWDKYQMGDQNVYPGPIDNSGLLKDGDAQSLKEHLIDELDYILLPTEGWNKLVSWYTLMEGQEPIARKVVEQGMFVKHCKVEVYLTELKLCENGNMNNVVTRRFSKADTIDTIEKEIRKIFSIPDEKETRLWNKYMSNTFEPLNKPDSTIQDAGLYQGQVLVIEQKNEDGTWPRGPSTPKSPGASNFSTLPKISPSSLSNNYNNMNNRNVKNSNYCLPSYTAYKNYDYSEPGRNNEQPGLCGLSNLGNTCFMNSAIQCLSNTPPLTEYFLNDKYQEELNFDNPLGMRGEIAKSYAELIKQMWSGKFSYVTPRAFKTQVGRFAPQFSGYQQQDCQELLAFLLDGLHEDLNRIRKKPYIQLKDADGRPDKVVAEEAWENHLKRNDSIIVDIFHGLFKSTLVCPECAKISVTFDPFCYLTLPLPMKKERTLEVYLVRMDPLTKPMQYKVVVPKIGNILDLCTALSALSGIPADKMIVTDIYNHRFHRIFAMDENLSSIMERDDIYVFEININRTEDTEHVIIPVCLREKFRHSSYTHHTGSSLFGQPFLMAVPRNNTEDKLYNLLLLRMCRYVKISTETEETEGSLHCCKDQNINGNGPNGIHEEGSPSEMETDEPDDESSQDQELPSENENSQSEDSVGGDNDSENGLCTEDTCKGQLTGHKKRLFTFQFNNLGNTDINYIKDDTRHIRFDDRQLRLDERSFLALDWDPDLKKRYFDENAAEDFEKHESVEYKPPKKPFVKLKDCIELFTTKEKLGAEDPWYCPNCKEHQQATKKLDLWSLPPVLVVHLKRFSYSRYMRDKLDTLVDFPINDLDMSEFLINPNAGPCRYNLIAVSNHYGGMGGGHYTAFAKNKDDGKWYYFDDSSVSTASEDQIVSKAAYVLFYQRQDTFSGTGFFPLDRETKGASAATGIPLESDEDSNDNDNDIENENCMHTN
notes: Endogenous protein
Regarding B2, the binding result in the experiment with RNF213-TurboID [2] was “binds”.

B3: PTP1B (PTPN1) (enzyme, Homo sapiens, UniProt P18031 1-435, looked up)
chain: MEMEKEFEQIDKSGSWAAIYQDIRHEASDFPCRVAKLPKNKNRNRYRDVSPFDHSRIKLHQEDNDYINASLIKMEEAQRSYILTQGPLPNTCGHFWEMVWEQKSRGVVMLNRVMEKGSLKCAQYWPQKEEKEMIFEDTNLKLTLISEDIKSYYTVRQLELENLTTQETREILHFHYTTWPDFGVPESPASFLNFLFKVRESGSLSPEHGPVVVHCSAGIGRSGTFCLADTCLLLMDKRKDPSSVDIKKVLLEMRKFRMGLIQTADQLRFSYLAVIEGAKFIMGDSSVQDQWKELSHEDLEPPPEHIPPPPRPPKRILEPHNGKCREFFPNHQWVKEETQEDKDCPIKEEKGSPLNAAPYGIESMSQDTEVRSRVVGGSLRGAQAASPAKGEPSLPEKDEDHALSYWKPFLVNMCVATVLTAGAYLCYRFLFNSNT
notes: Endogenous protein in cell lysates; also called Tyrosine-protein phosphatase non-receptor type 1
With B3, the binding result with RNF213-TurboID [2] is reported as “binds”.
